{"source": "patent US20260008815A1", "about": "“CYCLIC PEPTIDE OR SALT THEREOF, AND USES THEREOF” (FUJIFILM Corporation, priority 2023, published 2026)", "note": "Bridge positions count the residues as written; N and C are the ends. Ends that are not written are not given here. COCH2 = acetyl group that carries the bridge", "data": [{"target": "T1, Recombinant Human FGFR2 alpha (IIIc) Fc Chimera Protein, CF (R&D systems, 712-FR-050) (human, UniProt P21802 22-377)", "T1 construct": "bought; not shown: Fc part of the chimera", "T1 sequence (P21802 22-377, change not shown)": "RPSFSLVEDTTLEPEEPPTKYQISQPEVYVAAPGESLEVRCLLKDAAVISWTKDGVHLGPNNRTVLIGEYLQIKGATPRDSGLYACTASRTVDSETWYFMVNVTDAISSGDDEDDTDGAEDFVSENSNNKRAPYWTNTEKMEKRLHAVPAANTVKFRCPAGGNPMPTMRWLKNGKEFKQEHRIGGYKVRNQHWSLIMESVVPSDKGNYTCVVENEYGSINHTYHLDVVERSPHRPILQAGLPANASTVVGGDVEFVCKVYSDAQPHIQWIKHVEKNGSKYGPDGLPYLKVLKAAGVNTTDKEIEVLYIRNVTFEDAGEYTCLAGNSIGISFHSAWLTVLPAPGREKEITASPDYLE", "test": "ELISA on plate-bound FGFR2-Fc", "how_it_was_run": "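Plate-immobilized FGFR2 alpha (IIIc)-Fc (5 ng/well) incubated with peptide 3 h at room temperature, then anti-Myc antibody 2 h and chemiluminescent ELISA substrate. Signal corrected by subtracting FGFR-free wells; binding affinity scored into categories from the dose-response.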", "units": {"ELISA luminescence signal at 10 nmol/L peptide, relative to SEQ ID NO: 47 (=1)": "ratio"}, "values": [{"binder": "YCEENYLDPHQYQYFIYFK(COCH2)Y (thioether 2-19 (inferred))", "note": "[cyclic peptide SEQ ID NO: 250]", "ELISA luminescence signal at 10 nmol/L peptide, relative to SEQ ID NO: 47 (=1)": "≥ 0.7"}, {"binder": "YCEENYLDPEHYQYFIYFK(COCH2)Y (thioether 2-19 (inferred))", "note": "[cyclic peptide SEQ ID NO: 251]", "ELISA luminescence signal at 10 nmol/L peptide, relative to SEQ ID NO: 47 (=1)": "0.1 to 0.5"}, {"binder": "YCEENYLDPEQLQYFIYFK(COCH2)Y (thioether 2-19 (inferred))", "note": "[cyclic peptide SEQ ID NO: 252]", "ELISA luminescence signal at 10 nmol/L peptide, relative to SEQ ID NO: 47 (=1)": "0.1 to 0.5"}, {"binder": "YCEENYLDPEQIQYFIYFK(COCH2)Y (thioether 2-19 (inferred))", "note": "[cyclic peptide SEQ ID NO: 253]", "ELISA luminescence signal at 10 nmol/L peptide, relative to SEQ ID NO: 47 (=1)": "0.1 to 0.5"}, {"binder": "YCEENYLDPEQFQYFIYFK(COCH2)Y (thioether 2-19 (inferred))", "note": "[cyclic peptide SEQ ID NO: 254]", "ELISA luminescence signal at 10 nmol/L peptide, relative to SEQ ID NO: 47 (=1)": "≥ 0.7"}, {"binder": "YCEENYLDPEQWQYFIYFK(COCH2)Y (thioether 2-19 (inferred))", "note": "[cyclic peptide SEQ ID NO: 255]", "ELISA luminescence signal at 10 nmol/L peptide, relative to SEQ ID NO: 47 (=1)": "≥ 0.7"}, {"binder": "YCEENYLDPEQHQYFIYFK(COCH2)Y (thioether 2-19 (inferred))", "note": "[cyclic peptide SEQ ID NO: 256]", "ELISA luminescence signal at 10 nmol/L peptide, relative to SEQ ID NO: 47 (=1)": "≥ 0.7"}, {"binder": "YCEENYLDPEQYGYFIYFK(COCH2)Y (thioether 2-19 (inferred))", "note": "[cyclic peptide SEQ ID NO: 257]", "ELISA luminescence signal at 10 nmol/L peptide, relative to SEQ ID NO: 47 (=1)": "≥ 0.7"}, {"binder": "YCEENYLDPEQYLYFIYFK(COCH2)Y (thioether 2-19 (inferred))", "note": "[cyclic peptide SEQ ID NO: 258]", "ELISA luminescence signal at 10 nmol/L peptide, relative to SEQ ID NO: 47 (=1)": "≥ 0.7"}, {"binder": "YCEENYLDPEQYIYFIYFK(COCH2)Y (thioether 2-19 (inferred))", "note": "[cyclic peptide SEQ ID NO: 259]", "ELISA luminescence signal at 10 nmol/L peptide, relative to SEQ ID NO: 47 (=1)": "≥ 0.7"}, {"binder": "YCEENYLDPEQYVYFIYFK(COCH2)Y (thioether 2-19 (inferred))", "note": "[cyclic peptide SEQ ID NO: 260]", "ELISA luminescence signal at 10 nmol/L peptide, relative to SEQ ID NO: 47 (=1)": "≥ 0.7"}, {"binder": "YCEENYLDPEQYFYFIYFK(COCH2)Y (thioether 2-19 (inferred))", "note": "[cyclic peptide SEQ ID NO: 261]", "ELISA luminescence signal at 10 nmol/L peptide, relative to SEQ ID NO: 47 (=1)": "0.5 to 0.7"}, {"binder": "YCEENYLDPEQYYYFIYFK(COCH2)Y (thioether 2-19 (inferred))", "note": "[cyclic peptide SEQ ID NO: 262]", "ELISA luminescence signal at 10 nmol/L peptide, relative to SEQ ID NO: 47 (=1)": "≥ 0.7"}, {"binder": "YCEENYLDPEQYWYFIYFK(COCH2)Y (thioether 2-19 (inferred))", "note": "[cyclic peptide SEQ ID NO: 263]", "ELISA luminescence signal at 10 nmol/L peptide, relative to SEQ ID NO: 47 (=1)": "≥ 0.7"}, {"binder": "YCEENYLDPEQYNYFIYFK(COCH2)Y (thioether 2-19 (inferred))", "note": "[cyclic peptide SEQ ID NO: 264]", "ELISA luminescence signal at 10 nmol/L peptide, relative to SEQ ID NO: 47 (=1)": "≥ 0.7"}, {"binder": "YCEENYLDPEQYSYFIYFK(COCH2)Y (thioether 2-19 (inferred))", "note": "[cyclic peptide SEQ ID NO: 265]", "ELISA luminescence signal at 10 nmol/L peptide, relative to SEQ ID NO: 47 (=1)": "≥ 0.7"}, {"binder": "YCEENYLDPEQYTYFIYFK(COCH2)Y (thioether 2-19 (inferred))", "note": "[cyclic peptide SEQ ID NO: 266]", "ELISA luminescence signal at 10 nmol/L peptide, relative to SEQ ID NO: 47 (=1)": "≥ 0.7"}, {"binder": "YCEENYLDPEQYDYFIYFK(COCH2)Y (thioether 2-19 (inferred))", "note": "[cyclic peptide SEQ ID NO: 267]", "ELISA luminescence signal at 10 nmol/L peptide, relative to SEQ ID NO: 47 (=1)": "≥ 0.7"}, {"binder": "YCEENYLDPEQYEYFIYFK(COCH2)Y (thioether 2-19 (inferred))", "note": "[cyclic peptide SEQ ID NO: 268]", "ELISA luminescence signal at 10 nmol/L peptide, relative to SEQ ID NO: 47 (=1)": "≥ 0.7"}, {"binder": "YCEENYLDPEQYRYFIYFK(COCH2)Y (thioether 2-19 (inferred))", "note": "[cyclic peptide SEQ ID NO: 269]", "ELISA luminescence signal at 10 nmol/L peptide, relative to SEQ ID NO: 47 (=1)": "≥ 0.7"}, {"binder": "YCEENYLDPEQYHYFIYFK(COCH2)Y (thioether 2-19 (inferred))", "note": "[cyclic peptide SEQ ID NO: 270]", "ELISA luminescence signal at 10 nmol/L peptide, relative to SEQ ID NO: 47 (=1)": "≥ 0.7"}, {"binder": "YCEENYLDPEQYQIFIYFK(COCH2)Y (thioether 2-19 (inferred))", "note": "[cyclic peptide SEQ ID NO: 271]", "ELISA luminescence signal at 10 nmol/L peptide, relative to SEQ ID NO: 47 (=1)": "0.1 to 0.5"}, {"binder": "YCEENYLDPEQYQFFIYFK(COCH2)Y (thioether 2-19 (inferred))", "note": "[cyclic peptide SEQ ID NO: 272]", "ELISA luminescence signal at 10 nmol/L peptide, relative to SEQ ID NO: 47 (=1)": "≥ 0.7"}, {"binder": "YCEENYLDPEQYQNFIYFK(COCH2)Y (thioether 2-19 (inferred))", "note": "[cyclic peptide SEQ ID NO: 273]", "ELISA luminescence signal at 10 nmol/L peptide, relative to SEQ ID NO: 47 (=1)": "0.1 to 0.5"}, {"binder": "YCEENYLDPEQYQHFIYFK(COCH2)Y (thioether 2-19 (inferred))", "note": "[cyclic peptide SEQ ID NO: 274]", "ELISA luminescence signal at 10 nmol/L peptide, relative to SEQ ID NO: 47 (=1)": "0.1 to 0.5"}, {"binder": "YCEENYLDPEQYQYLIYFK(COCH2)Y (thioether 2-19 (inferred))", "note": "[cyclic peptide SEQ ID NO: 275]", "ELISA luminescence signal at 10 nmol/L peptide, relative to SEQ ID NO: 47 (=1)": "≥ 0.7"}, {"binder": "YCEENYLDPEQYQYYIYFK(COCH2)Y (thioether 2-19 (inferred))", "note": "[cyclic peptide SEQ ID NO: 276]", "ELISA luminescence signal at 10 nmol/L peptide, relative to SEQ ID NO: 47 (=1)": "0.5 to 0.7"}, {"binder": "YCEENYLDPEQYQYFGYFK(COCH2)Y (thioether 2-19 (inferred))", "note": "[cyclic peptide SEQ ID NO: 277]", "ELISA luminescence signal at 10 nmol/L peptide, relative to SEQ ID NO: 47 (=1)": "0.1 to 0.5"}, {"binder": "YCEENYLDPEQYQYFLYFK(COCH2)Y (thioether 2-19 (inferred))", "note": "[cyclic peptide SEQ ID NO: 278]", "ELISA luminescence signal at 10 nmol/L peptide, relative to SEQ ID NO: 47 (=1)": "≥ 0.7"}, {"binder": "YCEENYLDPEQYQYFVYFK(COCH2)Y (thioether 2-19 (inferred))", "note": "[cyclic peptide SEQ ID NO: 279]", "ELISA luminescence signal at 10 nmol/L peptide, relative to SEQ ID NO: 47 (=1)": "≥ 0.7"}, {"binder": "YCEENYLDPEQYQYFFYFK(COCH2)Y (thioether 2-19 (inferred))", "note": "[cyclic peptide SEQ ID NO: 280]", "ELISA luminescence signal at 10 nmol/L peptide, relative to SEQ ID NO: 47 (=1)": "≥ 0.7"}, {"binder": "YCEENYLDPEQYQYFYYFK(COCH2)Y (thioether 2-19 (inferred))", "note": "[cyclic peptide SEQ ID NO: 281]", "ELISA luminescence signal at 10 nmol/L peptide, relative to SEQ ID NO: 47 (=1)": "≥ 0.7"}, {"binder": "YCEENYLDPEQYQYFWYFK(COCH2)Y (thioether 2-19 (inferred))", "note": "[cyclic peptide SEQ ID NO: 282]", "ELISA luminescence signal at 10 nmol/L peptide, relative to SEQ ID NO: 47 (=1)": "≥ 0.7"}]}]}
